Laboratory results reported in US8133680.

Columns and labels:
[1] = biological target: biotinylated bovine serum albumin (bovine) (UniProt P02769); assay: ellipsometry after affinity microcontact printing; second use of the biotinylated BSA stamp; control
[2] = biological target: biotinylated bovine serum albumin (bovine) (UniProt P02769); assay: ellipsometry after affinity microcontact printing; third use of the biotinylated BSA stamp; control
[3] = biological target: biotinylated bovine serum albumin (bovine) (UniProt P02769); assay: ellipsometry after affinity microcontact printing from biotinylated BSA stamp (1 mg/ml, 5 h); control

Chain of UniProt P02769 (P02769 25-607 limits assumed): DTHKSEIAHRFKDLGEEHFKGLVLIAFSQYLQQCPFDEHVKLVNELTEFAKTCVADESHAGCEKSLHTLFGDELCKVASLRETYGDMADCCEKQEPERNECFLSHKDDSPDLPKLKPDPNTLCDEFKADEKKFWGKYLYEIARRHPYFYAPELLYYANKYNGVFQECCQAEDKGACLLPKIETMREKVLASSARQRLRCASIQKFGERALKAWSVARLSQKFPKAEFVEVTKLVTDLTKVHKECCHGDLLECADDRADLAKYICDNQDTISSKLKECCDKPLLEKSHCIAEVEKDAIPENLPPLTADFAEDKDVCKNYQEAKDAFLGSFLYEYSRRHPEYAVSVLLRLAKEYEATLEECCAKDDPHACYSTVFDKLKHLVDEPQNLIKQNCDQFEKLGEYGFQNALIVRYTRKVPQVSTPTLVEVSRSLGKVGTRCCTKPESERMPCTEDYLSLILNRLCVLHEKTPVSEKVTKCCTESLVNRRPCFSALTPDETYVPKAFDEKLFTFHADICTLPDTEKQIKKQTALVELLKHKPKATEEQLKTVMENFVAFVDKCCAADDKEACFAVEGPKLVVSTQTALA

anti-goat IgG (antibody) showed a change in ellipsometric thickness [1] of 1.5 nm, a change in ellipsometric thickness [2] of 1.2 nm and a change in ellipsometric thickness [3] of 2.3 nm.
